Assay [1] has as its target 5-FAM-SMG9 peptide (human) (UniProt Q9H0W8). Kind of assay: fluorescence polarisation. (In general: Polarisation of emitted light reports the rotation of a fluorescent probe.)
Assay [2] concerns the target T1, OGT (Homo sapiens, UniProt O15294).
T1 sequence (O15294 1-1046): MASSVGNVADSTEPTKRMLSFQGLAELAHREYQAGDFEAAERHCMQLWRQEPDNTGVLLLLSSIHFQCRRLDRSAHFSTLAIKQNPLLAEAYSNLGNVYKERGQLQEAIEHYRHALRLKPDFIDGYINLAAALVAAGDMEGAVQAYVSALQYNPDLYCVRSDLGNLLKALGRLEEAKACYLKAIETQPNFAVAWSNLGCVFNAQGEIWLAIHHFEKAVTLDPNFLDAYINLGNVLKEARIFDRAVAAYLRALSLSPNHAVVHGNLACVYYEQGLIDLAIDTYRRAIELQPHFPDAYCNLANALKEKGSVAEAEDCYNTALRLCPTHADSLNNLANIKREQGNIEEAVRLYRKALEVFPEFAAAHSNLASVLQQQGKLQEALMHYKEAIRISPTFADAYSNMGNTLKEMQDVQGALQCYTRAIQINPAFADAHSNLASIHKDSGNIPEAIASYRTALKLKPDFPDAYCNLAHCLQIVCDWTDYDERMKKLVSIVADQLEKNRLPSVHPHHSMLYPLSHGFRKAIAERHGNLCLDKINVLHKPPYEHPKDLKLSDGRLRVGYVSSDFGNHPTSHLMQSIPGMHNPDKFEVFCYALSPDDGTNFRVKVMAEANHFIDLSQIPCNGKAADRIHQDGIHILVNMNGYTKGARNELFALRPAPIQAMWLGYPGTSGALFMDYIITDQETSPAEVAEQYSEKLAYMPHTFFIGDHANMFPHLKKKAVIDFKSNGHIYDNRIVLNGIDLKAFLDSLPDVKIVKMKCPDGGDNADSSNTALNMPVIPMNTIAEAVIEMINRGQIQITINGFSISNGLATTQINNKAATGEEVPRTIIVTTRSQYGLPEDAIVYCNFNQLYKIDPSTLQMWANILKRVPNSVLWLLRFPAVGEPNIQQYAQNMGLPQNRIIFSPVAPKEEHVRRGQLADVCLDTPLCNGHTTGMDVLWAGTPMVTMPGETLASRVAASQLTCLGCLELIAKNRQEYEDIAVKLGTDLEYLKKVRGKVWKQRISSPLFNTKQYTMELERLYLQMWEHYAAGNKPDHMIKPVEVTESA
Kind of assay: Competitive fluorescence polarization. To be noted: FP competition with 5-FAM-SMG9 for OGT binding, n=3.

Non-standard residues stand in square brackets, D forms with d. No end group written: not given here. pY = N[C@@H](Cc1ccc(OP(=O)(O)O)cc1)C(=O)O Where only a bound is given, the exact number is not on record here.

On to OGT I734R (enzyme), for which the fold shift of EC50 against WT OGT in assay [1] was above 10 fold.

OGT N791A (enzyme): in assay [1], the fold shift of EC50 against WT OGT was above 10 fold.

OGT F723E (enzyme): in assay [1], the fold shift of EC50 against WT OGT is above 10 fold.

In the case of “SMG9 pY147: phosphorylated SMG9 peptide (pY147) (QRPTQPV[pY]QIQNRGMG)”, in assay [2], the “peptide binding to OGT” value is on record as “disrupted peptide binding, to a similar degree as Y147F”.
